2 molecules from patent US20160317644A1 can be followed below.

Like-named read-outs stand apart in the source and are kept apart here.

The target of assay [1] is transmembrane proteins of the replication complex. Briefly: cell-based or functional assay.
Assay [2] has the same target. As to the kind of experiment: cell-based or functional assay. The source holds these as a separate data set.

Consider “DEN2 NS1 F160A (from UniProt P29990 776-1127)”, for which, in assay [1], the Plaque size was determined as 1 mm and the Titer (PFU/mL) came out at 6000 PFU/mL.

B1: Dengue virus type 2 (DEN2; 16681) nonstructural protein 1 (NS1), recombinant, full-length, glycosylated, P29990 776-1127 (protein)
chain: DSGCVVSWKNKELKCGSGIFITDNVHTWTEQYKFQPESPSKLASAIQKAHEEGICGIRSVTRLENLMWKQITPELNHILSENEVKLTIMTGDIKGIMQAGKRSLRPQPTELKYSWKTWGKAKMLSTESHNQTFLIDGPETAECPNTNRAWNSLEVEDYGFGVFTTNIWLKLKEKQDVFCDSKLMSAAIKDNRAVHADMGYWIESALNDTWKIEKASFIEVKNCHWPKSHTLWSNGVLESEMIIPKNLAGPVSQHNYRPGYHTQITGPWHLGKLEMDFDFCDGTTVVVTEDCGNRGPSLRTTTASGKLITEWCCRSCTLPPLRYRGEDGCWYGMEIRPLKEKEENLVNSLVTA
In assay [2], B1 gave a Plaque size of 3 mm and a Titer (PFU/mL) of 4.8e+06 PFU/mL.
